# Assay results taken from patent publication US20210393711A1 (YISSUM RESEARCH DEVELOPMENT COMPANY OF THE HEBREW …, published 2021).
# Biological target: T1, mouse Toll-like receptor 2 (mouse, UniProt Q9QUN7 25-784)
# T1 construct: whole, on cells; also called murine TLR2; TLR2
# Assay: anti-His whole-mount immunofluorescence of mouse maxillary gingival tissue (oral tissue that expresses TLR2) 24 h after oral lavage with scaTLR2-secreting Lactobacillus
# Description: The ability of Lactobacillus transformants to secrete functional single chain antibody (scAb) in the oral cavity, and the ability of the scAb to bind to oral tissue that express TLR2 was next assessed. Mice were administered by one oral lavage the following Lactobacillus transformants: EV (empty vector transformed, negative control), scahTLR4 (single chain antibody against human TLR4, negative control), and scaTLR2 (single chain antibody against TLR2). After 24 h the mice were sacrificed, Lactobacillus persistence was assessed by culturing viable bacteria and enumerating CFU, and the maxillary gingival tissues were processed for whole mounting and stained with an antibody to the His-tag present in the single chain antibodies Similar Lactobacillus CFU were recovered in all three groups. […] In the control groups there was no detection of His-positive staining (FIG. 7A-B). Therefore, scaTLR2 is secreted by the transformed Lactobacilli in vivo, and avidly binds to oral mucosal tissue.
# T1 sequence (Q9QUN7 25-784): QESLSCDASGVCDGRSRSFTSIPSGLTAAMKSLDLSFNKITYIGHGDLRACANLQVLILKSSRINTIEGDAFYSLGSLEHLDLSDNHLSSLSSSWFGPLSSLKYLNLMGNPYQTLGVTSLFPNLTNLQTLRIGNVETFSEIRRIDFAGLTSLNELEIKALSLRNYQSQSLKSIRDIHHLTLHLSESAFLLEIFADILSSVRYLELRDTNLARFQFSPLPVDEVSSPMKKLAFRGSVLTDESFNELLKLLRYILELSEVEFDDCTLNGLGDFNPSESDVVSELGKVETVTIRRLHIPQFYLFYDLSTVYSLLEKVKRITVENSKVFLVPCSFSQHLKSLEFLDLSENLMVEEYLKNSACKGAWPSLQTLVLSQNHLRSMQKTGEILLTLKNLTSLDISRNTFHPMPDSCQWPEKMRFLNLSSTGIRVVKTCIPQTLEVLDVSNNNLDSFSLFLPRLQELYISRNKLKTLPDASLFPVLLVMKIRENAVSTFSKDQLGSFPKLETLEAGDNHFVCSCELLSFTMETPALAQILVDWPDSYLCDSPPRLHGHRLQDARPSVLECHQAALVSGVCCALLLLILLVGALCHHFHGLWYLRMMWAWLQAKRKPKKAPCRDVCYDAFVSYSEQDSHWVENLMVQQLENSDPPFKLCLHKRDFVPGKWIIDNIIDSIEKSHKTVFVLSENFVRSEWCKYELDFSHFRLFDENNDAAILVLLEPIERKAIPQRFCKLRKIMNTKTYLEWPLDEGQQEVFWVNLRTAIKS
binder,measurement,value
"anti-TLR2 single chain antibody (scAb) secreted by transformed Lactobacillus, built from the variable regions of mAb T2.5 (scFv, also called scaTLR2; anti-TLR2 scAb) scFv: QVQLQQSGPELVNPGASVKLSCKASGFTFTTYGINWVKQGPGQGLEWIGWIYPRDGSTNFNENFKDKAALTVDTSSSTAYMELHSLTSEDSAVYFCARLTGGTFLDYWGQGTTVTVSSGGGGSGGGGSGGGGSDIELTQSPASLAVSLGQRATISCRASESVEYYGTSLMQWYQQKPGQPPKLLIFGASNVESGVPVRFSGSGSGTDFSLNIHPVEEDDIVMYFCQQSRKLPWTFGGGTKLEIKR",binding result,binds
